Experimental data reported in publication PMC6277958, “Crystal structure of the Agrobacterium tumefaciens type VI effector–immunity complex” (Acta Crystallographica. Section F, Structural Biology …, 2018).

Biological target: the molecule itself
Experiment: SEC; AtTai4 alone in solution; conditions not told (purification used a HiLoad Superdex 75 column)

B1: T6SS amidase immunity protein 4 (Tai4) from Agrobacterium tumefaciens, residues 26–129, expressed alone from pCold-GST (natural protein, UniProt A9CGG9 26-129, looked up)
chain: AERTWIFSGAELKQAIEGKLAPDVSDPEMRRLVSVAKSSAYIAGVADLTSGSDWCGAGAVAPHELTDRIYTYLGDMPAEKLDEQAATLVREALKVSFPCEQKSN
notes: codon-optimized synthetic gene; His6-GST tag removed with Turbo3C protease; Disulfide bond between Cys80 and Cys124 in each protomer; also called AtTai4; ATU4346; source: E. coli Rosetta 2 (DE3), purified (Ni-NTA, Resource Q, HiLoad Superdex 75); not shown: His6, N-terminal, cleaved; GST, N-terminal, cleaved
stoichiometry N: 2
